This data set can be described thus: protein stability index of a GFP-peptide fusion (yeast GPS) (PSI 1-4); higher = more stable; sorted into four equal gates, so the index is relative within each strain. In short, it runs like this: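 Tiled 17-residue peptides from yeast proteins were fused downstream of GFP on a plasmid that also expresses Cherry, and the pooled library was carried in yeast. Mid-log cultures grown in leucine-free medium were sorted into four equal gates by GFP/Cherry fluorescence ratio. Plasmids from each gate were PCR-amplified and Illumina-sequenced, and reads were assigned to strains by barcodes. Each peptide's protein stability index is the sum, over gates, of the gate's read frequency multiplied by its gate number.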

± gives the uncertainty stated by the source.

Turning to QAQAQVYAQQSTVQTPI [PGD1], the protein stability index (doa10∆) amounted to 2.8 ± 0.052, the protein stability index (pdr5∆) is 2.91 ± 0.055, the protein stability index (san1∆) came out at 2.83 ± 0.048 and the protein stability index (ubr1∆) amounted to 2.95 ± 0.059.

QASDPSKKKKNIKKKDT [RPC53]: the protein stability index (doa10∆) was 3.26 ± 0.17, the protein stability index (pdr5∆) amounted to 3.5 ± 0.13, the protein stability index (san1∆) was found to be 3.2 ± 0.088 and the protein stability index (ubr1∆) turned out to be 3.3 ± 0.21.

Turning to QCPVKSAEDQLYAITFR [QCR2], the protein stability index turned out to be 3.14 ± 0.12 (doa10∆), 2.83 ± 0.25 (pdr5∆), 3.13 ± 0.14 (san1∆) and 3.09 ± 0.16 (ubr1∆).

Regarding QCYKIYDLVILKSGLPL [YMR129W/POM152], the protein stability index reads like this: (pdr5∆) 2.04 ± 0.12; (san1∆) 2.25 ± 0.14; (ubr1∆) 1.29 ± 0.059.

As for QDENIGLSMLAKLKELA [RPC31], the protein stability index runs as follows: (doa10∆) 3.14 ± 0.071; (pdr5∆) 3.46 ± 0.074; (san1∆) 3.05 ± 0.092; (ubr1∆) 3.16 ± 0.053.

In the case of QDIYYLAQTLKLWRKIA [RRI2], the protein stability index was determined as 2.04 ± 0.057 (doa10∆), 2.17 ± 0.046 (pdr5∆), 1.88 ± 0.07 (san1∆) and 1.63 ± 0.047 (ubr1∆).

As for QDLILDLKKKLNSLKDE [SMC4], the protein stability index came to 2.39 ± 0.083 (doa10∆), 2.82 ± 0.2 (pdr5∆), 2.01 ± 0.076 (san1∆) and 1.57 ± 0.062 (ubr1∆).

On to QDREITNWARTTFRNEY [MED8], for which the protein stability index is 2.49 ± 0.09 (doa10∆), 2.07 ± 0.083 (pdr5∆), 2.47 ± 0.092 (san1∆) and 2.51 ± 0.096 (ubr1∆).

As to QEELKKRQELEEASQQQ [MED2], the protein stability index came out at 2.96 ± 0.058 (doa10∆), 3.2 ± 0.076 (pdr5∆), 2.47 ± 0.071 (san1∆) and 3.29 ± 0.046 (ubr1∆).

On to QEGLAKFGACVAQGIMN [RPN2], for which the protein stability index runs as follows: (doa10∆) 1.79 ± 0.058; (pdr5∆) 1.75 ± 0.042; (san1∆) 1.88 ± 0.14; (ubr1∆) 1.58 ± 0.051.

QEKMDPNNSRDDYKDLT [IRR1]: the protein stability index (doa10∆) came out at 3.33 ± 0.078, the protein stability index (pdr5∆) was found to be 3.27 ± 0.083, the protein stability index (san1∆) stood at 3.23 ± 0.066 and the protein stability index (ubr1∆) stood at 3.25 ± 0.076.

QELAKSIRSRRPYQVNV [PRE1] returned a protein stability index (doa10∆) of 2.92 ± 0.14, a protein stability index (pdr5∆) of 2.88 ± 0.078, a protein stability index (san1∆) of 3.2 ± 0.14 and a protein stability index (ubr1∆) of 3.16 ± 0.078.

As to QELCYPDENHDNTSHDE [BRN1], the protein stability index worked out at 3.23 ± 0.073 (doa10∆), 3.27 ± 0.061 (pdr5∆), 2.98 ± 0.061 (san1∆) and 3.35 ± 0.056 (ubr1∆).

Regarding QELLNAETLCFTVNVLY [RPN3], the protein stability index is, setting by setting: (doa10∆) 3.11 ± 0.075; (pdr5∆) 2.75 ± 0.087; (san1∆) 2.94 ± 0.065; (ubr1∆) 2.87 ± 0.062.

On to QEMIEISNVIKPNQTIM [SRP54], for which the protein stability index runs as follows: (doa10∆) 2.62 ± 0.23; (pdr5∆) 2.21 ± 0.079; (ubr1∆) 1.96 ± 0.1.

Sequence QEQLKQMDQQLQYTALT [ARP7] had a protein stability index (doa10∆) of 2.71 ± 0.16, a protein stability index (pdr5∆) of 2.67 ± 0.25, a protein stability index (san1∆) of 2.55 ± 0.2 and a protein stability index (ubr1∆) of 3 ± 0.18.

On to QEQVYPDFKPWEHTAAE [SRB8], for which the protein stability index is 2.44 ± 0.16 (doa10∆), 2.94 ± 0.13 (pdr5∆), 3.17 ± 0.076 (san1∆) and 2.93 ± 0.11 (ubr1∆).

As to QERKDFLKKVMDTIQDK [ECM29], the protein stability index was 3.12 ± 0.13 (doa10∆), 3.41 ± 0.12 (pdr5∆), 3.35 ± 0.11 (san1∆) and 3.17 ± 0.072 (ubr1∆).

For the sequence QETCDKLRARLVEYGFD [SMC2], the protein stability index was determined as 2.17 ± 0.14 (doa10∆), 2.52 ± 0.093 (pdr5∆), 1.96 ± 0.089 (san1∆) and 1.57 ± 0.034 (ubr1∆).

For QEWLANLKLISVSLVDE [SIR4], the protein stability index is 2.77 ± 0.057 (doa10∆), 1.87 ± 0.047 (pdr5∆), 2.46 ± 0.056 (san1∆) and 1.67 ± 0.039 (ubr1∆).

For QFCGIKERNSLKKLKAM [BRR2], the protein stability index reads like this: (doa10∆) 3 ± 0.23; (pdr5∆) 3.25 ± 0.12; (san1∆) 2.25 ± 0.27; (ubr1∆) 2.99 ± 0.11.

As to QFDIQSPLYMDTETFDT [YML103C/NUP188], the protein stability index by setting is: (doa10∆) 3.11 ± 0.093; (pdr5∆) 2.88 ± 0.064; (san1∆) 3.02 ± 0.063; (ubr1∆) 3.28 ± 0.06.

The sequence QFLQLDNDGFSFLMRQF [ECM29] showed a protein stability index (doa10∆) of 1.33 ± 0.042, a protein stability index (pdr5∆) of 1.54 ± 0.061, a protein stability index (san1∆) of 1.45 ± 0.072 and a protein stability index (ubr1∆) of 1.83 ± 0.051.

As to QFMKRFPMPYENEEFIT [ECM29], the protein stability index was 2.88 ± 0.062 (doa10∆), 2.83 ± 0.094 (pdr5∆) and 2.85 ± 0.083 (san1∆).

Consider QFSYVDSSMTTVQENEL [AAR2], for which the protein stability index is, setting by setting: (doa10∆) 2.62 ± 0.044; (pdr5∆) 2.99 ± 0.05; (san1∆) 2.98 ± 0.04; (ubr1∆) 2.95 ± 0.052.

On to QFTKVIDEPIKSIMDGI [FAS1], for which the protein stability index by setting is: (doa10∆) 1.86 ± 0.047; (pdr5∆) 2.27 ± 0.078; (san1∆) 2.54 ± 0.16; (ubr1∆) 1.49 ± 0.072.

Take QFVDMVLPNTALKTSIQ [FAS1]: the protein stability index by setting is: (doa10∆) 2.5 ± 0.091; (pdr5∆) 1.61 ± 0.05; (san1∆) 1.58 ± 0.12; (ubr1∆) 1.28 ± 0.039.

For the sequence QGDVEQIAAQSPVELSR [SMC1], the protein stability index reads like this: (doa10∆) 2.66 ± 0.087; (pdr5∆) 2.92 ± 0.067; (san1∆) 3.08 ± 0.063; (ubr1∆) 2.83 ± 0.073.

Consider QGEEEELIALNLSEARL [RPB4], for which the protein stability index (doa10∆) came out at 3.22 ± 0.12, the protein stability index (pdr5∆) was found to be 3.53 ± 0.14, the protein stability index (san1∆) was 3.22 ± 0.078 and the protein stability index (ubr1∆) amounted to 3.26 ± 0.095.

Take QGGAMNKKSEQALDISK [SRP72]: the protein stability index stood at 3.07 ± 0.067 (doa10∆), 3.12 ± 0.058 (pdr5∆), 3 ± 0.043 (san1∆) and 3.07 ± 0.063 (ubr1∆).

On to QGLAMVEKYAPDVVRSL [RRP42], for which the protein stability index worked out at 2.25 ± 0.15 (doa10∆), 2.47 ± 0.16 (pdr5∆), 2.3 ± 0.15 (san1∆) and 2.72 ± 0.13 (ubr1∆).

Turning to QGMEGTVDLALFGSPPF [YMR129W/POM152], the protein stability index is, setting by setting: (doa10∆) 3.39 ± 0.079; (pdr5∆) 3.41 ± 0.068; (san1∆) 3.35 ± 0.076; (ubr1∆) 3.21 ± 0.047.

For the sequence QHDSSANEDEEEQLDAL [CSN12], the protein stability index is, setting by setting: (doa10∆) 3.55 ± 0.25; (pdr5∆) 2.75 ± 0.21; (ubr1∆) 3 ± 0.17.

As to QHHVTDADKLSFNCENF [YML031W/NDC1], the protein stability index (doa10∆) turned out to be 2.45 ± 0.065, the protein stability index (pdr5∆) was found to be 2.28 ± 0.053, the protein stability index (san1∆) was determined as 2.3 ± 0.058 and the protein stability index (ubr1∆) was 2.2 ± 0.058.

Regarding QIANEFNTQQGIKKHSL [YDL116W/NUP84], the protein stability index was found to be 3.01 ± 0.055 (doa10∆), 3.3 ± 0.049 (pdr5∆), 3.18 ± 0.04 (san1∆) and 3.11 ± 0.038 (ubr1∆).

Take QIDYKLESFQAVYNKLT [RPS7A]: the protein stability index reads like this: (doa10∆) 2.26 ± 0.043; (pdr5∆) 2.4 ± 0.051; (san1∆) 2.41 ± 0.063; (ubr1∆) 2.85 ± 0.037.

On to QIGQVPLAPAPINLPPQ [SNF5], for which the protein stability index was 2.35 ± 0.08 (doa10∆), 2.47 ± 0.081 (pdr5∆), 2.4 ± 0.14 (san1∆) and 2.5 ± 0.079 (ubr1∆).

For the origin of these results see the supplement of paper PMC9732359.
